Test results published in doi:10.1101/2021.08.12.455998.

Legend:
[1] = biological target: empty disulfide-stabilized HLA-A*02:01 molecule (HLA-A*02:01(Y84C/A139C) heavy chain with beta-2 microglobulin) (human); assay: native MS
[2] = biological target: empty disulfide-stabilized HLA-A*02:01 molecule (HLA-A*02:01(Y84C/A139C) heavy chain with beta-2 microglobulin) (human); assay: nDSF thermal shift

| Binder | Kd [1] [µM] | ΔTm [2] [K] | stoichiometry N [1] | percent of dsA2 as dsA2/pep (AUC) at 10 V [1] [%] |
| --- | --- | --- | --- | --- |
| NLVPMVAT [NT8] | 30 |  |  |  |
| LVPMVATV [LV8] | 0.07 | 11.6 |  |  |
| MVATV [MV5] |  |  | 2 |  |
| GLGGGGGGV [GV9] |  | 6.4 |  | 43 |
